Results on one substance are retold here after article PMC6589562.

For orientation: stoichiometry N means the number of molecules, sites or subunits per partner or assembly.

This test has as its target spoke HSP40 (His-tagged recombinant HSP40) (Chlamydomonas reinhardtii). Put plainly: AUC.

As for “spoke HSP40 (His-tagged recombinant HSP40) (natural protein)”, the stoichiometry N turned out to be 2.
